Reference: patent US6835378B2, “Method and compositions for inhibiting thrombin-induced coagulation” (The Texas A&M University System University, priority 2001, dated 2004)
Entries after “also recorded” stand apart in the source; their conditions may differ.

Assays:
[1] = system: fibronectin, collagen types I and IV, vitronectin, laminin and thrombospondin; test: ELISA: ligand specificity on other immobilized ECM proteins; assay type: binding; settings: data not shown
thrombin digested Fg = target: T1, thrombin digested Fg (Homo sapiens, UniProt P02675); test: ELISA with thrombin-digested Fg; assay type: binding; settings: Fg wells pretreated with thrombin 30 min 37° C.
T1 construct: purchased Enzyme Research Labs
T1 sequence (P02675 45-491 limits assumed): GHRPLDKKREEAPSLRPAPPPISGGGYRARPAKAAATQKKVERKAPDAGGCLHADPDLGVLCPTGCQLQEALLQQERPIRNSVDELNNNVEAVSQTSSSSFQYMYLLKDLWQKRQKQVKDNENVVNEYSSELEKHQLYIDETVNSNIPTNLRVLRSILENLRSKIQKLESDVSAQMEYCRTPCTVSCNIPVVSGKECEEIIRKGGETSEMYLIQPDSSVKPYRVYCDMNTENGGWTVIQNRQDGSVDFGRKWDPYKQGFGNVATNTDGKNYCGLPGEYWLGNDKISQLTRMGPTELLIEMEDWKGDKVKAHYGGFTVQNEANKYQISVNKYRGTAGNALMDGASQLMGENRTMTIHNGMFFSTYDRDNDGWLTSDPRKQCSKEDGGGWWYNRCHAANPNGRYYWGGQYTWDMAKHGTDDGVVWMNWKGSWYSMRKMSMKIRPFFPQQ
T1 sequence (P02671 36-629 partner limits assumed): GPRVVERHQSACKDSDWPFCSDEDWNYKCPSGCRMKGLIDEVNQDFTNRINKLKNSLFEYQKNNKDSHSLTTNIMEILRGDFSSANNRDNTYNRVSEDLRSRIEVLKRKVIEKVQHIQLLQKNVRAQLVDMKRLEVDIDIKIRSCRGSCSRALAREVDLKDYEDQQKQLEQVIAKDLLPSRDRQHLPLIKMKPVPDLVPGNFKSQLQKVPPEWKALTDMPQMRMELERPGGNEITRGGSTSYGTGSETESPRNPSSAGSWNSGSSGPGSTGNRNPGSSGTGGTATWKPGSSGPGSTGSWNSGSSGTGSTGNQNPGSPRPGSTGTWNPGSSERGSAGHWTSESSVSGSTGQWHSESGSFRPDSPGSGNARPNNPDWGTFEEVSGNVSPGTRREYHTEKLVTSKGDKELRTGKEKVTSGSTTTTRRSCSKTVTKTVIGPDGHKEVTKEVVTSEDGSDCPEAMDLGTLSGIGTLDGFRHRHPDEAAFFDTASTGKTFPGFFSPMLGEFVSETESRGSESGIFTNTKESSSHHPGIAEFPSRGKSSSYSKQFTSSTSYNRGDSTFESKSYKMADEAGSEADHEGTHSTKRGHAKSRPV
T1 sequence (P02679 27-437 isoform P02679-2 partner limits assumed): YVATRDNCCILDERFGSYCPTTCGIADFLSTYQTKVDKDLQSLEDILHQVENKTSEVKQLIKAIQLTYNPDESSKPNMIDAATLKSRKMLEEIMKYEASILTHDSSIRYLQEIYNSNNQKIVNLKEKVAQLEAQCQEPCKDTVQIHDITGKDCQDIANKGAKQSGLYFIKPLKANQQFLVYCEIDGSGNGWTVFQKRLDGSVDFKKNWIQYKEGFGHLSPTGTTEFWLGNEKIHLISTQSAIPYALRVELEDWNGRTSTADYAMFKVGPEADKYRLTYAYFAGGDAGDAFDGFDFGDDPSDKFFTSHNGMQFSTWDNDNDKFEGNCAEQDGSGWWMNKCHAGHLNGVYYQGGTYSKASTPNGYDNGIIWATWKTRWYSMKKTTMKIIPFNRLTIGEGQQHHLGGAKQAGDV
Protocol: For the ELISA with thrombin-digested Fg, the plate was coated with Fg and blocked as described above. The plate was washed three times with PBST and 50 μl of 1.0 NIH unit/ml of thrombin was added to the Fg coated wells. The plate was incubated at 37° C. for 30 min. The plate was washed three times with PBST and 50 μl of 1.0 NIH unit/ml of hirudin (Sigma) was added to the wells and incubated at 37° C. for 30 min. The plate was washed three times with PBST and blocked with 1% BSA for 1 h at room temperature. After washing three times with PBST, 100 μl of biotin labeled rSdrG(50-597) (25-1000 nM) or a rSdrG(50-597)/hirudin (1.0 NIH unit/ml) mixture was added to the wells and incubated for 1 h at room temperature. The plate was washed three times with PBST and a 1:5000 dilution of streptavidin-AP conjugated (Boehringer Mannheim) in PBST/0.1% BSA was added to the wells for 1 h at room temperature. The plate was washed three times with PBST and developed as described above.

[2] = system: thrombin catalyzed release of fibrinopeptides A and B; test: Release of fibrinopeptides by thrombin, HPLC; assay type: biochemical; settings: for Percentage of FpB released: Fg 0.3 μM
Protocol: Release of Fibrinopeptides by Thrombin—The thrombin catalyzed release of fibrinopeptides A and B was analyzed as follows. Fg solutions were diluted to 0.3 μM in 20 mM HEPES (pH 7.4), 150 mM NaCl, 5 mM ε-aminocapriotic acid, and 1.0 mM CaCl2. ε-aminocapriotic acid was included to inhibit any possible plasmin contaminant activity. […] The tubes were mixed by inversion and 500 μl aliquots were removed for the 15 and 60 min time points. The aliquots were incubated at room temperature and then immersed in boiling water for 15 min to halt the reaction. The aliquots were stored on ice for the remainder of the time course. At the end of the reaction the samples were centrifuged for 15 min at 4° C., and the supernatants were removed and stored at −20° C. overnight prior to analysis by high performance liquid chromatography.
The fibrinopeptides released were monitored by reverse phase HPLC essentially as described (19). The samples were loaded onto a Waters Delta-Pak C18 column equilibrated with buffer A (25 mM NaH2PO4/Na2HPO4, pH 6.0). Fibrinopeptides were eluted with a linear gradient from 100% buffer A to 40% buffer B (Buffer A with 50% acetonitrile) and monitored by absorbance at 205 nm. Fibrinopeptide peak area was determined using the software Waters Millennium^32.

B1: rSdrG(50-597): recombinant His-tagged A region (residues 50-597) of SdrG, a fibrinogen-binding MSCRAMM from S. epidermidis (protein)
chain: HHHHHHAEENTVQDVKDSNMDDELSDSNDQSSNEEKNDVINNSQSINTDDDNQIKKEETNSNDAIENRSKDITQSTTNVDENEATFLQKTPQDNTQLKEEVVKEPSSVESSNSSMDTAQQPSHTTINSEASIQTSDNEENSRVSDFANSKIIESNTESNKEENTIEQPNKVREDSITSQPSSYKNIDEKISNQDELLNLPINEYENKVRPLSTTSAQPSSKRVTVNQLAAEQGSNVNHLIKVTDQSITEGYDDSDGIIKAHDAENLIYDVTFEVDDKVKSGDTMTVNIDKNTVPSDLTDSFAIPKIKDNSGEIIATGTYDNTNKQITYTFTDYVDKYENIKAHLKLTSYIDKSKVPNNNTKLDVEYKTALSSVNKTITVEYQKPNENRTANLQSMFTNIDTKNHTVEQTIYINPLRYSAKETNVNISGNGDEGSTIIDDSTIIKVYKVGDNQNLPDSNRIYDYSEYEDVTNDDYAQLGNNNDVNINFGNIDSPYIIKVISKYDPNKDDYTTIQQTVTMQTTINEYTGEFRTASYDNTIAFSTSSGQGQGDLPPE
binding to other immobilized ECM proteins [1]: failed to bind
binding to thrombin digested Fg (thrombin digested Fg): significantly impaired; also recorded: unable to bind
binding to thrombin digested Fg (thrombin digested Fg; listed as SdrG): could not bind; also recorded: does not bind
FpA release by thrombin [2]: no apparent interference
FpB release by thrombin ([2]; 1:1 ratio of rSdrG(50-597) to Fg): significant decrease
FpB release by thrombin ([2]; 5:1 ratio (1.5 μM rSdrG(50-597))): decrease in the amount of FpB released; also recorded: effectively able to inhibit the release of FpB
Percentage of FpB released ([2]; SdrG:Fg 1:1, 15 min): 65.4%
Percentage of FpB released ([2]; SdrG:Fg 1:1, 60 min): 45.2%
Percentage of FpB released ([2]; SdrG:Fg 2:1, 15 min): 13.9%
Percentage of FpB released ([2]; SdrG:Fg 2:1, 60 min): 17.4%
Percentage of FpB released ([2]; SdrG:Fg 5:1, 15 min): <0.001%
Percentage of FpB released ([2]; SdrG:Fg 5:1, 60 min): <0.001%
